The text below walks through data of the RNAGym collection of RNA variant scans (doi:10.1073/pnas.2313332121).

B1: TPR t1 (parent)
chain: GACCAAUCUGCCCUCAGAGCUCGAGAACAUCUUCGGAUGCAGAGGAGGCAGGCUUCGGUGGCGCGAUAGCGCCAACGUCCUCAACCUCCAAUGCAUCCCACCACAUGAUGAUGCCUGAAGAGCCUUGGUUUUUUG

The variants in this series derive from B1. Kind of series: polymerase ribozyme fitness, log enrichment relative to wild type (log ratio); higher = more active; in vitro selection for triplet polymerase activity. The procedure, abridged: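 The heterodimeric triplet polymerase ribozyme's subunits were each mutagenized into PCR-built libraries and transcribed. Every library was selected once, in triplicate, by annealing with a biotinylated primer, the partner subunit and triplets, incubating frozen at −7 °C, gel-excising extended constructs, capturing on streptavidin beads and running RT-PCR. Input and output libraries were Illumina-sequenced, with genotypes kept only at ≥10 input reads and ≥1 read per output. Fitness, from inverse-variance-weighted replicate averages, is the base-2 logarithm of genotype enrichment over wild-type enrichment.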
As for G19A G71A, the “polymerase ribozyme fitness (log ratio)” value is -3.99.
Consider G19U C20G G57U C70G C85U C101U U112G, for which the “polymerase ribozyme fitness (log ratio)” value was -6.53.
With C20A C85G, the “polymerase ribozyme fitness (log ratio)” value is -3.75.
In the case of C20A G42U G120A, the “polymerase ribozyme fitness (log ratio)” value is -3.01.
For C20A G52C, the “polymerase ribozyme fitness (log ratio)” value was -2.97.
For G19C C40U G93U C114G G122A, the “polymerase ribozyme fitness (log ratio)” value was -0.927.
As for A18C A37C G127U U129A, the “polymerase ribozyme fitness (log ratio)” value was -3.43.
As to G19C G71U C114A G128A, the “polymerase ribozyme fitness (log ratio)” value was -2.59.
Regarding A18G G36A U116C A118G, the “polymerase ribozyme fitness (log ratio)” value was -2.17.
A18C C72U C73U U106A C124U: the “polymerase ribozyme fitness (log ratio)” value is -1.79.
For the variant G19A C64U, the “polymerase ribozyme fitness (log ratio)” value is -2.88.
As for A18C C114G, the “polymerase ribozyme fitness (log ratio)” value is -2.59.
Consider A18U C20G G61A, for which the “polymerase ribozyme fitness (log ratio)” value was -6.8.
Next, G19A C34A C89A: -6.24; A18C C28U: -5.11.
The same measure for A18C A27G A111U G128C: -6.38.
With G19U U87A U106C A118U, the “polymerase ribozyme fitness (log ratio)” value is -4.56.
As for G17U G63C C73U, the “polymerase ribozyme fitness (log ratio)” value is -1.67.
The same measure for A18C C88G G120A: -2.81.
Regarding A18U G128C, the “polymerase ribozyme fitness (log ratio)” value is -4.63.
Consider G17U G60U C88U C97U G120A, for which the “polymerase ribozyme fitness (log ratio)” value was -2.79.
With A18C A27G, the “polymerase ribozyme fitness (log ratio)” value is -5.05.
In the case of A18G C64U G69C U78G G113C, the “polymerase ribozyme fitness (log ratio)” value was -3.05.
On to A18C G71U, for which the “polymerase ribozyme fitness (log ratio)” value was -3.18.
A18U G48U G52U G69U C79G: the “polymerase ribozyme fitness (log ratio)” value was -2.76.
On to A18G A41C A43G G57U, for which the “polymerase ribozyme fitness (log ratio)” value was -4.59.
The same measure for C20A U87G A100G C102A A119G: -5.22.
For the variant A18G C123U, the “polymerase ribozyme fitness (log ratio)” value is -1.44.
Next, C20A C40G: -4.64; C20A G77U: -3.11; C20A G77A: -3.54.
Regarding C20A G63A A74C U96A, the “polymerase ribozyme fitness (log ratio)” value is -5.16.
With A18C C20U G36U C56G, the “polymerase ribozyme fitness (log ratio)” value is -3.57.
For A18G, the “polymerase ribozyme fitness (log ratio)” value was -1.83.
As to A18U, the “polymerase ribozyme fitness (log ratio)” value is -2.13.
Next, A18C: -2.11; A18C C115U: -2.17; A18C G19A C40U C49U A50U C89U C124U: -5.69.
Next, A18C G19U: -5.8; C20A A91G U109G: -4.02.
The same measure for A18G U67A C102U C123A: -5.64.
Take C20A G44U G69A C86A C123G: the “polymerase ribozyme fitness (log ratio)” value is -6.49.
For the variant C20A C53U, the “polymerase ribozyme fitness (log ratio)” value was -2.46.
Regarding C20A C70U G93A G113C U132C, the “polymerase ribozyme fitness (log ratio)” value was -7.65.
Take A18C G52A: the “polymerase ribozyme fitness (log ratio)” value is -2.7.
Consider G19C C86G A121G, for which the “polymerase ribozyme fitness (log ratio)” value is -0.947.
As to C20A C28U G39U G71U C97U C123A, the “polymerase ribozyme fitness (log ratio)” value is -6.92.
On to G19U C20U U106C, for which the “polymerase ribozyme fitness (log ratio)” value is -2.36.
Next, G17U U109A: -6.56; G19A U87G A105C A111C: -4.37; A18C A43U A121G: 0.81.
In the case of G17U G117C, the “polymerase ribozyme fitness (log ratio)” value is -5.24.
Next, G19U A41C U92A C94U C115U U133G: -5.87; A18G G39U C53U G71A G120A: -4.4; A18G G39C: -4.37.
As for C20A G51A G61C, the “polymerase ribozyme fitness (log ratio)” value was -6.95.
With C20G C73U A83C, the “polymerase ribozyme fitness (log ratio)” value was -4.27.
For the variant C20G C56G A84U, the “polymerase ribozyme fitness (log ratio)” value is -4.43.
In the case of C20A A50G G52A C124A, the “polymerase ribozyme fitness (log ratio)” value is -1.12.
Next, C20A C40U U132A: -2.39.
C20A U96G: the “polymerase ribozyme fitness (log ratio)” value was -3.33.
In the case of A18G C64U G113A, the “polymerase ribozyme fitness (log ratio)” value is -1.65.
Next, A18C C40G: -4.09; A18U C22A G113A: -3.79.
Take A18U A74C A90U A121C U129A: the “polymerase ribozyme fitness (log ratio)” value is -1.29.
Turning to A18U U96C U112A, the “polymerase ribozyme fitness (log ratio)” value is -1.44.
With G17U G48C, the “polymerase ribozyme fitness (log ratio)” value is -2.61.
For the variant G17U C102U, the “polymerase ribozyme fitness (log ratio)” value is -4.64.
On to A18C A26G G71A G93A U112C G122A, for which the “polymerase ribozyme fitness (log ratio)” value was -4.45.
Regarding A18U G60A, the “polymerase ribozyme fitness (log ratio)” value was -2.24.
The same measure for C20G A46U C114U: -3.16.
Take G19C G63C A111G C115G: the “polymerase ribozyme fitness (log ratio)” value was -5.11.
Turning to A18G C123U U132A, the “polymerase ribozyme fitness (log ratio)” value is -2.14.
For G19A G61A U125G, the “polymerase ribozyme fitness (log ratio)” value is -2.54.
Regarding A18C G128C, the “polymerase ribozyme fitness (log ratio)” value is -5.12.
As for A18U C28U A50U C98A, the “polymerase ribozyme fitness (log ratio)” value was -7.62.
For the variant C20A C82A U87G, the “polymerase ribozyme fitness (log ratio)” value was -1.92.
As for A18U G39U G48U C73U A84C, the “polymerase ribozyme fitness (log ratio)” value is -4.34.
In the case of G19C U130C, the “polymerase ribozyme fitness (log ratio)” value is -2.
Turning to A18G U132A, the “polymerase ribozyme fitness (log ratio)” value is -3.07.
Regarding A18C C72G, the “polymerase ribozyme fitness (log ratio)” value is -3.9.
Turning to A18C C72U, the “polymerase ribozyme fitness (log ratio)” value is -2.49.
As to A18C C72A, the “polymerase ribozyme fitness (log ratio)” value is -2.45.
Consider C20A C28A G47C C97U G110C, for which the “polymerase ribozyme fitness (log ratio)” value is -6.66.
